{"source": "patent US20080187577A1", "about": "(University of Texas, published 2008)", "target": "T1, CCK2R on AR42J cells (UniProt P30553 1-452, limits assumed)", "T1 construct": "whole, on cells", "T1 sequence (looked up)": "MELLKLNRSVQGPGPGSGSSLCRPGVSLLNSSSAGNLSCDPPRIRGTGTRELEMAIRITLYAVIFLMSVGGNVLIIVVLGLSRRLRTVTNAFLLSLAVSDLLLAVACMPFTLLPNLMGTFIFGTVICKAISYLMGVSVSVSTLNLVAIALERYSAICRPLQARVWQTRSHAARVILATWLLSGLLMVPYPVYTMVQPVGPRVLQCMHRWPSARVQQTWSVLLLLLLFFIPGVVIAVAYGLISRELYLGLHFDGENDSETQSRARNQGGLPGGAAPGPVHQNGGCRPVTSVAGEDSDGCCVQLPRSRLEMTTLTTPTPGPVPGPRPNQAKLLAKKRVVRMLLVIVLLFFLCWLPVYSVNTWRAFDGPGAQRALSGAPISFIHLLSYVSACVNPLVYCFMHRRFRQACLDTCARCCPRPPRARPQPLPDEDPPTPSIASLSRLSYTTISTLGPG", "test": "displacement of ^125I-BH-CCK8 from AR42J cells", "description": "For these experiments, AR42J cells were expanded in vitro in 175 mm flasks and grown to subconfluence in the growth medium containing 10% FCS. All binding assays were performed 36-48 h after seeding the cells in culture medium containing 10% FCS and 2% glutamine. Before the start of the binding assays, the cells in culture were washed with Hanks Balanced salt solution (HBSS) (GIBCO) containing 0.1% BSA and 25 mM HEPES (Sigma) and scraped with a rubber policeman into conical tissue culture polystyrene tubes. Cells were centrifuged at 500 g for 5 min and resuspended in HBSS at a concentration of 2×10⁶ cells/ml. Aliquots (˜1.0 ml) of suspended cells in polystyrene tubes were used in the binding assays. […] Binding assays were performed at 37° C. for 30-60 min at pH 6.5 (optimal for binding).\nNon-specific binding was determined in the presence of 1000× excess of the non-labeled homologous peptide. At the end of the incubation, the cells were pelleted and washed twice with 1 ml of fresh ice-cold HBSS plus 0.1% BSA. Cell pellets were counted for ¹²⁵I in a gamma counter with ˜70% efficiency for ¹²⁵I.", "data": [{"binder": "full-length recombinant human PG1-80 (rhPG) (ligand, Expressed in E. coli from pET32 as a thioredoxin fusion and purified; also called recombinant human progastrin; progastrin) SWKPRSQQPDAPLGTGANRDLELPWLEQQGPASHHRRQLGPQGPPHLVADPSKKQGPWLEEEEEAYGWMDFGRRSAEDEN", "values": [{"measurement": "binding result", "result": "no binding"}]}]}
